Here are results for four molecules from patent publication US20040253243, “Aptamer therapeutics useful in ocular pharmacotherapy” (published 2004).

Where two headings read alike, the source gives them in different places.

Data set [1] addresses T1, PDGF-BB (Homo sapiens, UniProt P01127 P01127:82-190).
The target in data set [2] is T2, PDGF-AB (Homo sapiens, UniProt P04085;P01127 P04085:87-211,P01127:82-190).
The next data set addresses T3, TGF-beta2 (Rattus, UniProt Q07257 Q07257:331-442).
T3 sequence: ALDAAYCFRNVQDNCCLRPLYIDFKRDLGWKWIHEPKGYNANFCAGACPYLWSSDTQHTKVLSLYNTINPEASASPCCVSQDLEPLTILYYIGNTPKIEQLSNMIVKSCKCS
In words: filter; values in figure only. The note with it: chain copies: 2 (inferred).

Data set [3] deals with T1, PDGF-BB. In words: p237 labels ARC125 as SEQ 16, Table 3 as SEQ 17. The note with it: chain copies: 2 (inferred).
Data set [4] deals with T2, PDGF-AB. The experiment in a line: p237 labels ARC125 as SEQ 16, Table 3 as SEQ 17.

T2 sequence (P01127 82-190, chain 2 of 2, other chains not shown): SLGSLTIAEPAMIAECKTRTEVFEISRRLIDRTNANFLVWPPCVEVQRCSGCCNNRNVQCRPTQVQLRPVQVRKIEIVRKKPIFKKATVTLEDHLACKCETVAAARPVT
T1 sequence (P01127 82-190, one chain of several): as the sequence (P01127 82-190, chain 2 of 2, other chains not shown) above
Procedure for TGF-beta2: Dissociation constants for the binding of aptamers to purified human or rodent TGFβ-2 protein were determined by nitrocellulose-filter partitioning using ³²P-labeled RNA. In vitro transcribed RNA was treated with calf-intestinal alkaline phophatase (New England Biolabs) to remove 5′-triphosphates, then radio-labeled by incubation with γ-³²P-ATP and T4 polynucleotide kinase (New England Biolabs). Unincorporated label was removed by gel-filtration, and the RNAs were further purified by polyacrylamide gel electrophoresis (PAGE). Purified ³²P-labeled aptamer in water was refolded just prior to use by heating for 3 min at 95° C., followed by a 10 minute room-temperature incubation in binding buffer (50 mM Hepes, pH 7.4, 1 mM MgCl₂, 1 mM CaCl₂, 3 mM KCl, 140 mM NaCl, 0.1 mg/ml BSA, 0.01 mg/ml tRNA). The binding reactions (100 μL) were initiated by the addition of aptamer (≦0.1 nM) to excess TGFβ-2 protein (0.2-100 nM), followed by 10-30 minute equilibration at room temperature.
Nitrocellulose-filter partitioning was performed on Minifold® I, 96-well Dot-Blot manifolds (Schleicher & Schuell). Protein-bound aptamer and residual free aptamer were captured, respectively, on pre-wetted Protran nitrocellulose (Schleicher & Schuell) and Hybond-P polyvinylidene difluoride (Amersham Biosciences) filters by vacuum aspiration, and quantified by PhosphorImager (Amersham Biosciences). […]

On to TGGGAGGGCGCGTTCTTCGTGGTTACTTTTAGTCCCG (ssDNA, 3'-3'-dT cap) [ARC123], for which the Kd with PDGF-BB [1] and with PDGF-AB [2] was 0.1 nM throughout.

Consider GGAGGUUAUUACAGAGUCUGUAUAGCUGUACUCC (ssRNA, 2'-F all C and U, 2'-OH purines, 3'-inverted T (3T)) [ARC77], for which, in the data set with TGF-beta2, the binding result is “binds”.

On to TACTCAGGGCACTGCAAGCAATTGTGGTCCCAATGGGCTGAGTA (ssDNA, 3'-3'-dT cap) [ARC125], for which the Kd with PDGF-BB [3] and with PDGF-AB [4] was 0.1 nM each time.

Turning to CACAGGCTACGGCACGTAGAGCATCACCATGATCCTGTG (ssDNA, 3'-3'-dT cap) [ARC124], the dissociation constant Kd in the data set with PDGF-BB [1] and with PDGF-AB [2] was 0.1 nM throughout.

What is called Kd is a measure of binding affinity in units of concentration. High values mean lower affinity, low ones higher affinity.
